Experimental data as given in PMC7340788, “Structure of the yeast Swi/Snf complex in a nucleosome free state” (Nature Communications, 2020).

T1: Swi1 (S. cerevisiae, UniProt P09547 1-1314)
T1 construct: Swi1, subunit of the S. cerevisiae Swi/Snf complex; endogenous protein; Only part of the chain is modelled (C-terminus with seven ARM repeats, α1, β1); For cryo-EM the complex was cross-linked with 1 mM BS3; source: endogenous, S. cerevisiae; purified as part of the Swi/Snf complex through Snf6-3Flag (ANTI-FLAG M2 resin, Superose 6)
T1 sequence (looked up): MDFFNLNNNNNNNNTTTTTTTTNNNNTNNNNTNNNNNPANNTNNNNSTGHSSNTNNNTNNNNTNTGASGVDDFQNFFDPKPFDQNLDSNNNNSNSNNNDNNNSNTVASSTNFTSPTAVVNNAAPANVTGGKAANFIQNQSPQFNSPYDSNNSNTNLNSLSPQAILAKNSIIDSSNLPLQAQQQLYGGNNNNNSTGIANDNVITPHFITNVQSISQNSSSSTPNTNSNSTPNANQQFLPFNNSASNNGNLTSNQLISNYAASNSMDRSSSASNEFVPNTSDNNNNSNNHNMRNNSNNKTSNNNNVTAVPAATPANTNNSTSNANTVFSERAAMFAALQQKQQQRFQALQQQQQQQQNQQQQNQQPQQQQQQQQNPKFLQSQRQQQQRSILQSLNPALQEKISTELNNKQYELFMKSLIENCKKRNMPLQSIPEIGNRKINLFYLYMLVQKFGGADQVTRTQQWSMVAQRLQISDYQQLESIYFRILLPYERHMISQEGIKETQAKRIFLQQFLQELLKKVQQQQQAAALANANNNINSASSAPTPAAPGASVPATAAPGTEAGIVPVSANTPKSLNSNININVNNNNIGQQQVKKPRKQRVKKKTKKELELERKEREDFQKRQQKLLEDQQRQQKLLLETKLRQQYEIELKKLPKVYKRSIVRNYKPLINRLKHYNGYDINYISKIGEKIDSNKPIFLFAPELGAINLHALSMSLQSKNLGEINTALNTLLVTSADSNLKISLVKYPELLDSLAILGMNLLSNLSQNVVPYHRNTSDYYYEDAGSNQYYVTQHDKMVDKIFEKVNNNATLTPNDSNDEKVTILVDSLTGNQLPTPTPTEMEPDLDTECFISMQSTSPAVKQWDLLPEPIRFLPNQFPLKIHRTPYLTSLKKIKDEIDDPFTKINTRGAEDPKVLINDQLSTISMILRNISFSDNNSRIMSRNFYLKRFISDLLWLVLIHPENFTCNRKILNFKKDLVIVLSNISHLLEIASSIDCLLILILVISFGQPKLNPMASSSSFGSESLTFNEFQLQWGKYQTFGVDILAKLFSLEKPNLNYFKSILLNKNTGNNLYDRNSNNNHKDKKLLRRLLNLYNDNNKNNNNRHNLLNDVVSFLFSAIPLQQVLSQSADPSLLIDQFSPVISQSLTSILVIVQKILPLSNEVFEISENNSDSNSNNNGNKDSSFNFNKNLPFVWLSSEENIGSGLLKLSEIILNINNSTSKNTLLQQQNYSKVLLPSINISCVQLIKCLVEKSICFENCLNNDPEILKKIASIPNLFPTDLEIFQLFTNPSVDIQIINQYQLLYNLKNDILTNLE

B1: Swi3 (natural protein, S. cerevisiae, UniProt P32591 1-825, looked up)
chain: MENTLGEGSTVNASVDVDQHGNDNNSDSNANAAVAGVANTDTAGEESQQQDESLKDEATVPNTRDAESEAITVTAKQQPTMQANKLDSQETPSTEESRAQNVFGQDNEDSDNLFGETESSVSNNEANTPSIPTNPVDNENNKPAIKEDSTIQDSNGDVKNMEDVKIQKEEEPENNTVIEGVKEESQPDENTKEMDEVEEDDEDDDQPMISPDNSIFGDTKSESKQLGNTSSVANTPSEIPDAHKAEQEDIIEKTESVDKKVDSGEERNEQEREIMNDHSKSANPKKTTITRVEPETFEIPQAHEIVIPSYSKWFNLEKIHSIEVQSLPEFFTNRIPSKTPEVYMRYRNFMVNSYRLNPNEYFSVTTARRNVSGDAAALFRLHKFLTKWGLINYQVDSKLLPKNIEPPLTSQYSTRHDAPRGLFPFESYKPSVQLPDMAKLKKMMNTSDSESTLYKYLKESKRKYDEITHPPSTTDDENGDKNDNGGKMNNEVSTSTSMTGDANLLEEGETSRPLKKVKILEQIDENWSKEDLQKLLKGIQEFGADWYKVAKNVGNKSPEQCILRFLQLPIEDKFLYGDGNGKGDNDNGLGPLKYAPHLPFSKSENPVLSTIAFLVGLVNPKTVQSMTQRAIQSAESIKSQKEEISDQKPIEHIKEGSEIAISSLGYRSHIFATNEERQMNFLTNELIRLQMEKLDAKLNHLKKLEKFMELERKTLERQQENLLIQRLNFNQNSSKIVNVLSKCLNLISDSNINNSSVAEKEEIRSQIDHFKSMLSKPETLSIGKNPFNKPNIETGENHNGQSISNENDVKPISIEAPQFYRYWSA
notes: Swi3, subunit of the S. cerevisiae Swi/Snf complex; endogenous protein; two copies (chains A and B) in the model; also called Swi3A; Swi3B; source: endogenous, S. cerevisiae; purified as part of the Swi/Snf complex through Snf6-3Flag (ANTI-FLAG M2 resin, Superose 6)

Key:
Experiment in all cases: cryo-EM structure; endogenous Swi/Snf complex purified as a whole through Snf6-3Flag, nucleosome-free, cross-linked with 1 mM BS3, 20 mM HEPES pH 7.4, 350 mM NaCl; 4.1 Å average, 2.9 Å for the base module
[1] = target: the molecule itself
[2] = target: T2, Snf5 (S. cerevisiae, UniProt P18480 1-905); conditions: both partners purified
T2 construct: Snf5, subunit of the S. cerevisiae Swi/Snf complex; endogenous protein; For cryo-EM the complex was cross-linked with 1 mM BS3; source: endogenous, S. cerevisiae; purified as part of the Swi/Snf complex through Snf6-3Flag (ANTI-FLAG M2 resin, Superose 6)

[3] = target: T1, Swi1; conditions: both partners purified
[4] = target: T3, Snf2 (S. cerevisiae, UniProt P22082 1-1703); conditions: both partners purified
T3 construct: Snf2, ATPase-containing subunit of the S. cerevisiae Swi/Snf complex; endogenous protein; Only the preHSA domain and the HSA helix are seen in the map; the ATPase domain is absent from the structure; For cryo-EM the complex was cross-linked with 1 mM BS3; source: endogenous, S. cerevisiae; purified as part of the Swi/Snf complex through Snf6-3Flag (ANTI-FLAG M2 resin, Superose 6)

[5] = target: B1; conditions: both partners purified

T3 sequence (P22082 whole entry, the tested form may be a part): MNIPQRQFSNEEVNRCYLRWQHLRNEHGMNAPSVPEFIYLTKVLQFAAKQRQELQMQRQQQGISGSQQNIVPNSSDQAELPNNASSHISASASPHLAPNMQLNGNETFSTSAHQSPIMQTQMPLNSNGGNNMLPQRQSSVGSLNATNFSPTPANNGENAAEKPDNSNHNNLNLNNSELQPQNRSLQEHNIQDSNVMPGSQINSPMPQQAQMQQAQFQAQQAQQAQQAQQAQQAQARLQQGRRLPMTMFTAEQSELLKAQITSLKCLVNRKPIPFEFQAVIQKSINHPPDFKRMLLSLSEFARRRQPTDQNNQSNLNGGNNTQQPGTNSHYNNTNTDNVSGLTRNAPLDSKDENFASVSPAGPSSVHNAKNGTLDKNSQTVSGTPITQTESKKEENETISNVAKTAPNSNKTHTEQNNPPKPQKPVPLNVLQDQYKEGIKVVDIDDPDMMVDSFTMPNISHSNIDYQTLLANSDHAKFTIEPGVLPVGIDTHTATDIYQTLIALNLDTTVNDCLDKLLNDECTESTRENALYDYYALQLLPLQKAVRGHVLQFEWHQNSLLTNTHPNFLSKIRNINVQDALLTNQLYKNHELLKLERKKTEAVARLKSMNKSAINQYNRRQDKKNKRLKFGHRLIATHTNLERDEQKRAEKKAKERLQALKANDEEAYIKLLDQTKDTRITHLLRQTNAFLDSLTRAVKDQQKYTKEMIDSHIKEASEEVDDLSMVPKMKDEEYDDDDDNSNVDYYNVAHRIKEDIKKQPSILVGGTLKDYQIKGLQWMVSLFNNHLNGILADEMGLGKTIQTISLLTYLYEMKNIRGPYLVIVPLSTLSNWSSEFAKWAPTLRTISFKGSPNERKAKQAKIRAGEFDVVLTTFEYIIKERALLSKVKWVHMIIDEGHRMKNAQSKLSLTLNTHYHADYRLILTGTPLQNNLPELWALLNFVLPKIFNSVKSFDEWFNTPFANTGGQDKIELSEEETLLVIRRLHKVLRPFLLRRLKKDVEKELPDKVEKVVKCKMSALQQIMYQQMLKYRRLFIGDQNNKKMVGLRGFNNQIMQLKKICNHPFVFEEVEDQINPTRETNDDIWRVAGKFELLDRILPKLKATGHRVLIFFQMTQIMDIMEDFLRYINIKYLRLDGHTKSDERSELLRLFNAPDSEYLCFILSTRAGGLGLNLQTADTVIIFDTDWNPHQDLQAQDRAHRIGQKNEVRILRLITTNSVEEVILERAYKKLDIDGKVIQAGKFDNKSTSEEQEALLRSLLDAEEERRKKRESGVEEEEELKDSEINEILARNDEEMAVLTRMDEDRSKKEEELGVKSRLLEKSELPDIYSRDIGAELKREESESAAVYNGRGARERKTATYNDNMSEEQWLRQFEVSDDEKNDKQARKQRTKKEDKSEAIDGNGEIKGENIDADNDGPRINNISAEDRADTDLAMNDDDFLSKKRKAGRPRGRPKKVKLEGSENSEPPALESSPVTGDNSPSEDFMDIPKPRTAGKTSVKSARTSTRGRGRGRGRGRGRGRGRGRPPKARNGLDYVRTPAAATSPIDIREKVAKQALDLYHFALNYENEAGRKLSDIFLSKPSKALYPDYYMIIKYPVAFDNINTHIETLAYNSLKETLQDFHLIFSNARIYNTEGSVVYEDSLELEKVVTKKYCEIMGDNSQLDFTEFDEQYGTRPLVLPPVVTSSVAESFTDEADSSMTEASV
T2 sequence (P18480 whole entry): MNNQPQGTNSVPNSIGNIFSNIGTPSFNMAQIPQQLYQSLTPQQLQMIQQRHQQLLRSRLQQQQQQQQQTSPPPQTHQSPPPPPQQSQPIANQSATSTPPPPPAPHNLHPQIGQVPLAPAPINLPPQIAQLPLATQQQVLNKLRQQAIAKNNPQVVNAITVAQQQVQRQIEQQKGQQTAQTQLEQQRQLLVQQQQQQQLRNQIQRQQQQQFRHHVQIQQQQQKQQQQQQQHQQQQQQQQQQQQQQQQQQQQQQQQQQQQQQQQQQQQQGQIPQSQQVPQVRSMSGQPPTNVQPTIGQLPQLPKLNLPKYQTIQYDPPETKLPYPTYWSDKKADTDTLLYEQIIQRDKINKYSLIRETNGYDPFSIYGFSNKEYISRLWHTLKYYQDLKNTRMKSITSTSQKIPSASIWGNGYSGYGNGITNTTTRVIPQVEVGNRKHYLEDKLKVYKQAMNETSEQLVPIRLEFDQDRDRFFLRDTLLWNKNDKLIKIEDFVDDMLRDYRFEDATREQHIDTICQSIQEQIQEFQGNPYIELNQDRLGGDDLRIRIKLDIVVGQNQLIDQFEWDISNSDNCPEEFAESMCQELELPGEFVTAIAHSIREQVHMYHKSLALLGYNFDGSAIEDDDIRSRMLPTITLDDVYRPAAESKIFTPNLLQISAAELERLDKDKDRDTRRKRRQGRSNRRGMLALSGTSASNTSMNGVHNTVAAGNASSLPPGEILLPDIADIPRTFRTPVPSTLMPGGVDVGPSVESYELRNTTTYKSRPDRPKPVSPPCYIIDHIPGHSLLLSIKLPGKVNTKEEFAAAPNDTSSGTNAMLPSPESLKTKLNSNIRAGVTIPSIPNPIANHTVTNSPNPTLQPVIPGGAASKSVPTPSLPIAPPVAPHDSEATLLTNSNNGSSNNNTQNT

Row | Binder | stoichiometry N [1] | binding result [2] | binding result [3] | binding result [4] | binding result [5]
1 | B1 | 2 | binds | binds | binds | 
2 | Swp82 (natural protein, S. cerevisiae, UniProt P43554 1-623, looked up, Swp82, subunit of the S. cerevisiae Swi/Snf complex; endogenous protein; For cryo-EM the complex was cross-linked with 1 mM BS3; source: endogenous, S. cerevisiae; purified as part of the Swi/Snf complex through Snf6-3Flag (ANTI-FLAG M2 resin, Superose 6)) MLGEDEGNTVLEKGNNPSVKQGEVGAVFIVPKILIREHERVILKQILQILDQDELVQPPLDKFPYKKLELPKYIDELKTRDATNTSYKMIQLDAYGEKKVGSNGELFGGRHYLFNTFTFTAHMGVLLVLLQDVIKVLYQSNATHDEDEFIVQHDQILVMETSEEQTKFLAKNGVIPEESKGSFKYITARSAFVEFGASVIAGGQRIVDDYWESLAKKQNLSSHQRVFKLSTNLISKISLLRPSFQNNRISNANEISANTNNTCTISTSKFESQYPIVTEQPSAEIREAYIENFAKGEHISAIVPGQSISGTLELSAQFRVPRYHSKNSFQQALQMKAMDIPIGRHEELLAQYESQAPDGSASISLPNHIPSVNPSNKPIKRMLSSILDINVSSSKNKKSEENEMIKPMNKGQHKNNTSLNINGWKFESLPLKSAENSGKQQYYRGLPLYEKNTLLERLKQLTPNEIKELEHLHDAVFVNTGLQNVRKVRTKKWKKYWQYKAGIPIGLKRSQLDEFKNKYLKDVLAQTSVTTNFNEITNTDETITTKRVPNPNFLGNCNIKDFKPPYIYSHVNKVPQNVAGDKTAVKLDTEVKNTNANPVVATDPVAAKPDNLANFSNEVAMNN |  | binds |  | binds | binds
